Target: HuR (Human antigen R, ELAVL1) (UniProt Q15717 Q15717:1-326)
Assay: SPR; localized SPR (LSPR) on gold nanoparticle arrays; sizable red shift on HuR addition; inhibitor CMLD-1 disrupted binding (10 nm leftward shift)
Details: tags: Novus Biologicals H00001994-P01; tethered by base pairing to thiolated ssDNA on gold nanoparticles
Experimental: Next a target RNA strand containing a DNA hybridizing region, which binds via base pair matching with the ssDNA on the nanoparticle, and a hairpin loop containing a HuR target binding site. The specific target RNA strand used (SEQ ID NO 7) contains a specific HuR binding motif, has the RNA sequence 5′-GCG-AAU-UGG-GCC-CGA-CGU-CGC-AUG-GCU-UUU-AUU-UAU-UUU-GCA-UGG-CCG-CGG-GAU-3′, and was from Integrated DNA Technologies (IDT). Last, the HuR protein is added and binds to its target site withing the RNA hairpin loop. The specific HuR protein used was a recombinant HuR protein from Novus Biologicals (product #:H00001994-P01). For each step of the assembly, sizable LSPR shifts were observed, confirming our ability to quantitatively measure the expected binding at each step (FIG. 11A-C).

HuR (Human antigen R, ELAVL1), sequence (Q15717 whole entry, one chain of several): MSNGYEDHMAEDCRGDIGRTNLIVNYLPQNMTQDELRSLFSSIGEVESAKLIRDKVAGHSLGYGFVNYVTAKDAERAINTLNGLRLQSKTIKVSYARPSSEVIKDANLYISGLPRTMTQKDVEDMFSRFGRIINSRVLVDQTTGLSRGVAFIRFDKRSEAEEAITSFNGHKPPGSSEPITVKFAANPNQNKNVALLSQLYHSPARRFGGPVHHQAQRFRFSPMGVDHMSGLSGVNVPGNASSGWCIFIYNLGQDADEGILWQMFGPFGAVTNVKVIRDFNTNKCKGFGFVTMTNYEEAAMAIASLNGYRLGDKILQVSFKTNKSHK

B1: HuR target RNA with DNA-hybridizing region and hairpin loop (ssRNA)
RNA: GCGAAUUGGGCCCGACGUCGCAUGGCUUUUAUUUAUUUUGCAUGGCCGCGGGAU
- binding result: binds

From patent publication US20190117772, “METHODS FOR THE TREATMENT OF CARDIAC HYPERTROPHY” (UNIVERSITY OF CINCINNATI, published 2019)
